# Source: a protein production outcome set (Wang et al. 2014)
# Assay: label from the status in PepcDB records
row,Sequence,protein production
1,MPAVARIDPKTIFTPDEWARLTHRSSARGLWLVAHAWGCIALAVALVTIWPNPLTWLIAVMIVGTRQLGLAILMHEAAHGGLHCNPKLNEWIGQWLCAVPVGADLPAYRRYHLQHHKYTQQPEDPDLVLSAPFPISKDSFVRKAIRDLTGQTFVKQRLPALKALFAPADSGAPKHDSFVASGKARTQRFLAANAVLLALFWLAGAGVWFVGVWLVAMATWLPLVTRVRNIAEHACTSTGADPFSQARTTLANPIERALIAPYWVNYHAEHHLFMYLPCYNLPEAHRLLRDKGLIDRVTVAPSYRDVLKLATTRPRAVAAE,failed
2,MPCVQAQYGSSPQGASPASQSYSYHSSGEYSSDFLTPEFVKFSMDLTNTEITATTSLPSFSTFMDNYSTGYDVKPPCLYQMPLSGQQSSIKVEDIQMHNYQQHSHLPPQSEEMMPHSGSVYYKPSSPPTPTTPGFQVQHSPMWDDPGSLHNFHQNYVATTHMIEQRKTPVSRLSLFSFKQSPPGTPVSSCQMRFDGPLHVPMNPEPAGSHHVVDGQTFAVPNPIRKPASMGFPGLQIGHASQLLDTQVPSPPSRGSPSNEGLCAVCGDNAACQHYGVRTCEGCKGFFKRTVQKNAKYVCLANKNCPVDKRRRNRCQYCRFQKCLAVGMVKEVVRTDSLKGRRGRLPSKPKSPQEPSPPSPPVSLISALVRAHVDSNPAMTSLDYSRFQANPDYQMSGDDTQHIQQFYDLLTGSMEIIRGWAEKIPGFADLPKADQDLLFESAFLELFVLRLAYRSNPVEGKLIFCNGVVLHRLQCVRGFGEWIDSIVEFSSNLQNMNIDISAFSCIAALAMVTERHGLKEPKRVEELQNKIVNCLKDHVTFNNGGLNRPNYLSKLLGKLPELRTLCTQGLQRIFYLKLEDLVPPPAIIDKLFLDTLPF,not failed
3,MPDASAENPWLPLRQLTPARIALGRTGTSLPTRPQLDFQYAHAQARDAVHLPFDHAAISDGLRQRGRDSLLLHSAAADRHVYLQRPDLGRRLDEASVQRLREHAAGYDGQIDLAIVVADGLSALAVQRHTLPFLERLEEQALAEGWSLSPVVLVEQGRVAVADEIGELLRAKMSVILIGERPGLSSPDSLGLYFTWAPRVGLTDAYRNCISNVRLEGLSYGMAAHRLLYLMREACRRQLSGVNLKDEAEVQALDGEAPRTGNFLLAR,failed
4,MPDLGLTDAESLGHCLFDTGFGVCGIAWRAFEGKDEAPVVTLFLLPEATAAGTAAAMARRCGGSPTVPPPAIAEVIEKVRRHFRGDLQDFSRVRVEPDGAGPFARAVYSAARDVPAGQIRTYGELARALNRPAAARAVGQALGRNPVPLIIPCHRILGAGGKLGGFSAHGGVATKARMLRLEGVAV,failed
5,MPDLMHSELTMSGPEQSLLAGALLGAGLPADAHRHLELAGRDYQSEALAEQHLREAHLLAPDHAAVLIGLYRFYFYKGRLGEALEVAQACLCKAARDNGLASDWRKVRRGDAEFSSYSAVLPRFYLFALKAYAYLQMRLGQLDEGHAAVEKLLELDPTDKVGAAVLLDVWRRIGLEHHHHHH,not failed
6,MPECRNCGATLREEYRFCPMCATPQTDEASRRLNQYIEQRATKRQASGGTASSNGAENDGTLRGRLQYAAGYVAIVLGLATVTAVAGVFFLLAGLFLLPPIHGRIESAVGRRLGPAPTAGVAGVLAAFGLVVFVFL,failed
7,MPEIHQSIAQHYHERTKYDPETIASKSQRLDWAKQPVPFKEYKIGSAIDLKPYLQETPEVFVNDTNGQWWQRLSRLLFRSYGLTARMPSMGNTVYLRAAPSAGGLYPAEVYVVSRGTPLLSPGLYNYQCRTHSLIHYWESDVWQSLQEACFWHPALESTQLAIIVTAVFYRSAWRYEDRAYRRICLDTGHLLGNIELSAAITDYRPHLIGGFIDEAVNDLLYIDPLQEGAIAVLPLADLLDIQQNISPGCTALPSATETNYPQVPDGELLKYFHHHTQISASITGKLNLPTVIQEKSLEDKYNFPFCLKISTVSAPIYWGENLSDLEITMHKRRSTRAYNGEELTFDELKALLDFTYQPQNYIDQSLDNSPDYFDLNLIETFIAVCGVQGLEAGCYYYAPKAQELRQIRFKNFRRELHFLCLGQELGRDAAAVIFHTSDLKSAIAQYGDRVYRYLHMDAGHLGQRLNLAAIQLNLGVSGIGGFFDDQVNEVLGIPNDEAVIYITTLGRPR,not failed
8,MPEILINYKTNREDYKRQSKYCNICMRRYKSVKKNVIILALMIVFVFVFGTVAFHLIEGWNLFDSFFFTLITVSTVGYSIPENLSQAGKVIASILISAGVTIVLYGFTSVTSMIVEGHIGEYFKSRRMRKMIDRLKDHFIVVGAGRTGRHTTLEIMKAKKPFVVIDQSEEAIARLKDFLGEEFPYVVGDATEEEILMKAGVERARSLVVTLPDDAKSTFVVLTAKSLNPNLEIVSRVSDMKALSKLVYAGADKVIATSELAGVRLAQMALNPTTISFLDILSFGEESFRIEEVVIPPESPVANKTLGEINLAKRAGTIVIAIRRGGEVIFNPTGDTKILPEDRLMVVGKSDHFEKLHRLIEEG,failed
9,MPEISPYVTKTEVQLMMAGLDYRKTNGSRDTAPKGQLPWIVDAAQAIADSTFIRVHIERKYDVDLDFGLTGRERAQAWAIERMIENQLGWVSTYFRFLEPANFERGPARAFDQAPGHLRDELRQGLREAVAANIRAVGVGRHLREEVAWLGGLSLRALDELLEDKAYLMRDAYPVGVDATAFAMLAAIMTPFFDSPLRRQAERYPRLVAYVGRMMERFYPAHPWGLRQAA,failed
10,MPEITESERAYHLRKMKTRMQRVDVTGDGFISREDYELIAVRIAKIAKLSAEKAEETRQEFLRVADQLGLAPGVRISVEEAAVNATDSLLKMKGEEKAMAVIQSLIMYDCIDTDKDGYVSLPEFKAFLQAVGPDLTDDKAITCFNTLDFNKNGQISRDEFLVTVNDFLFGLEETALANAFYGDLVD,not failed
11,MPEKPTEDARFYGRRKGKPLRATRQRLLDTMLPALTLPLAGLGEGERLDPRGLFPRPVDQLWLEIGFGGGEHLVAQAAAHPEVGLIGSEVFAYGVGKALSQIDETGVDNIRLWPEDVRQVLPALPDGCLQRLFVLFPDPWPKRRHARRRMIQPARLDDFARLLADGGELRVASDDMGYVRWTLMHVTAHPAFRWTAQGPTDWRERPADWVETRYEAKALQAGRKPAYLIFRRRPRAADPGTLAEAPAGEGADNNP,failed
12,MPELILKPCEPVRSALKQDVAALEAPPTGGNVDKSATTSNSVTPATSAAPSPAPASEKGEDKDKDSEKEKDKTSAEKSEVKQEQEAEEDKKPGDVKQENPVEEAAGDTKPSDAEVKTEVAKTEPKEETKDPEVKEEPKTEEKEKEKVDDKKPIPPTTVIDDDDDDVMIVKEDGELEKPSASSPKDQKAVAAATSAATGATGK,failed
13,MPEQTYMYAYVTLPHHDQRERYTQKCYRDGRRIVLASYDLMGSERFSFKEKLRKSMKGMNESAERWVSEVRQGENLNSIDNYYRLYKGKI,failed
14,MPEVIFNGPAGRLEGRYQPSKEKSAPIAIILHPHPQFGGTMNNQIVYQLFYLFQKRGFTTLRFNFRSIGRSQGEFDHGAGELSDAASALDWVQSLHPDSKSCWVAGYSFGAWIGMQLLMRRPEIEGFMSIAPQPNTYDFSFLAPCPSSGLIINGDADKVAPEKDVNGLVEKLKTQKGILITHRTLPGANHFFNGKVDELMGECEDYLDRRLNGELVPEPAAKRIR,not failed
15,MPFAIGQRWLSESENALGLGVITALDQRTVTIYFPAADETRIYAMAQAPLSRIVFSKGETLSHQAGWQGEILDVQNMNGLLFYLVKNPQDEDVIVQERDISPIISFSQAKDRLFSAQI,failed
16,MPFCPEEFYCRITQNIESLNNIAKIQHAANTDYLTDLANRRAFFRSAESRIKEYINKKVPYCLAMIDVDFFKKVNDTYGHDSGDQVLKVIALYMRKHFGAGLTARLGGEEFAVLLHGLDADYLHNKLDDFRREIAVSSIPAGDTSISITLSLGVVFDSEDELSKQMNEADNALYAAKENGRNQIVVFGAELDDLEHHHHHH,failed
17,MPFGLKSSQSIDDKFMSITQMKNLIHYVKKNDALSHLCIYILIITGSRFKPVQHLRYEDLNFKKSCIHLNDTKNKYSKRNVKVRIKDLEYIQSVINKHPINQNGYIFHNFINFISYSAINDVLVRFCLKYKYDKYTLKSLRHTHCSYLLAKGISIQYISKRLGHADIHTTLKIYSHLIKEFEDSENSLIEKNLNDLFSDLEHHHHHH,not failed
18,MPFKEYDHDFIDKNKKASSSVRLALLLSVLIIIFNLLFFKHRDFQEQLHNNPGSYTDLIALVFLFFILSCTSKISLNHTSALSIRLGLHVWICSATFDFMDEFIYQPKLVGYYVEDMLRIIGMFGVGFGVYTLIQQINNKYVEARIQSFSDELTQLPNRRFFINELKKLEAKTPYLFIIDIDNFKVINDKYGHTKGDEILSKFGHILSRFDNSEVVATRIGGEEFAIILYAGTQDRAEKLAREVLKNANKIIIKNMHHLSVSIGAGKKQPQEPTEHFMKRVDVALYQAKNTGKGKVEWALEPKEKTQ,failed
19,MPFLLTLLAFLRVLRRLLKDEKFRALLYITAFTLAIGTFFYHSVEGWDWLDSLYFSVITLTTVGYGDFTPKTNIGKFFTIIYIFIGLGILVAFVTPIGEYIVDRRLDRIQEREQKKEIPENEFDFSGVIGKLRGKK,failed
20,MPFLYRLASLLIALLVLPVQAAEMRVALLRTSGVETLDALTVDGGSWVRRVPLSHTAVLIEHHAATLLFDTGLGRDIDAQFRADMPWWAAPLFAYQKVVPARDQLDAAGIRVDRILLSHAHWDHASGLVDFPEVPVWAPYEEIAFSRIATPPAAFPSQFRHGVRWQPYSFDPRPFMGFDESLDLFGDGRLVLVPLPGHTPGSVGLFVTLDSGRRLFFSGDTSWRLEGVEGPRQKFFAGRALVDRDPARTLAQLAKIRLLLRSDPRLSVIPAHDARVQAALGYFPHWLE,failed
21,MPFSISGRKGSEMMAKLDELKQKLTAKQIQAAYLLVENELMESNNEEKRTQDEMANELGINRTTLWEWRTKNQDFIAFKSEVADSFLAEKREQVYSKLMQLILGPQPSVKAMQLYMQRFGLLTDKKVIEGDLGNATRTNAEIEEQLQKLKKLTGE,not failed
22,MPFSWLKPIDYARIFVGWASIFIIPLITLPSIIELALIVAVILFCAFGVVKMAERLAHILGDPFGSLILTLSIVIIEVILICAVMLGPADSTTAGRDSVMAVSMIIMGLVVGLCLLIGGLRHGSMPHNGVGTPTYLVLIATFSVIAFAVPAFRGEYSTGQALVISTLTAVVYGFFLFRQMGAQAGEFQEVEVAEKADDAAKWEVPFRGLILIITVLPIVLLSHDMATVMDEVLASLGAPVAMAGLIIATIVFLPETITSLKAAWTGEIQRVSNLAHGAQVSTVGLTIPAVLVIGVITGQDVVLGETPINLLLLGTTIAVTAIAFSSKKVSAVHGSVLLMLFGVYMMSMFA,failed
23,MPFTLHLRSRLPSAIRSLILQKKPNIRNTSSMAGELRPASLVVLPRSLAPAFERFCQVNTGPLPLLGQSEPEKRMLPPQGAISETRMGHPQFWKYEFGACTGSLASLEQYSEQLKDMVAFFLGCSFSLEEALEKAGLPRRDPAGHSQAGAYKTTVPCVTHAGFCCPLVVTMRPIPKDKLEGLVRACCSLGGEQGQPVHMGDPELLGIKELSKPAYGDAMVCPPGEVPVFWPSPLTSLGAVSSCETPLAFASIPGCTVMTDLKDAKAPPGCLTPERIPEVHHISQDPLHYSIASVSASQKIRELESMIGIDPGNRGIGHLLCKDELLKASLSLSHARSVLITTGFPTHFNHEPPEETDGPPGAVALVAFLQALEKEVAIIVDQRAWNLHQKIVEDAVEQGVLKTQIPILTYQGGSVEAAQAFLCKNGDPQTPRFDHLVAIERAGRAADGNYYNARKMNIKHLVDPIDDLFLAAKKIPGISSTGVGDGGNELGMGKVKEAVRRHIRHGDVIACDVEADFAVIAGVSNWGGYALACALYILYSCAVHSQYLRKAVGPSRAPGDQAWTQALPSVIKEEKMLGILVQHKVRSGVSGIVGMEVDGLPFHNTHAEMIQKLVDVTTAQV,failed
